What was measured:
[1] = molecular target: T1, PiT1 phosphate transporter on murine cells (CD4+ T cells; cerebellar cortex sections) (mouse, UniProt Q61609 1-681); test: flow cytometry, RBD on murine CD4+ T cells polarised to Th0, Th1, Th2, Th17 or iTreg, day 4
T1 construct: whole, on cells
T1 sequence: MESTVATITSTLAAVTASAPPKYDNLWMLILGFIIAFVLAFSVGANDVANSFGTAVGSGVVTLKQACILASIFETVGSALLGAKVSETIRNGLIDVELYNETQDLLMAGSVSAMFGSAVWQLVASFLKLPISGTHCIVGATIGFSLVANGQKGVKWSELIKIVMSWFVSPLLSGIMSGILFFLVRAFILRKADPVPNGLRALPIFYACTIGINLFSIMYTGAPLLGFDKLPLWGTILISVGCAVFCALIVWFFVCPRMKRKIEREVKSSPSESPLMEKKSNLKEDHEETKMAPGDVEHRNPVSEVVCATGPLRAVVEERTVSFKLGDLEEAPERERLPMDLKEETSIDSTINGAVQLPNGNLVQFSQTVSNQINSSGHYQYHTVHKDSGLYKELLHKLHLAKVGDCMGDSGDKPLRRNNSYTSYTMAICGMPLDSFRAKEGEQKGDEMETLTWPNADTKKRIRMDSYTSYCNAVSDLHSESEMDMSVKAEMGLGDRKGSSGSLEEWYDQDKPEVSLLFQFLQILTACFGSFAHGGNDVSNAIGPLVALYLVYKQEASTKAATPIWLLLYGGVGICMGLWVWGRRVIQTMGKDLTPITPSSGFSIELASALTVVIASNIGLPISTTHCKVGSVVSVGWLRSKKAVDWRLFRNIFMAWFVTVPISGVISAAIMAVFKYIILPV

[2] = molecular target: T2, PiT1 phosphate transporter on human cells (T cells, CD34 progenitor cells) (human, UniProt Q8WUM9 1-679); test: flow cytometry, tagged RBD on unstimulated and TCR-stimulated human T cells
T2 construct: whole, on cells; also called GaLV Env receptor
T2 sequence: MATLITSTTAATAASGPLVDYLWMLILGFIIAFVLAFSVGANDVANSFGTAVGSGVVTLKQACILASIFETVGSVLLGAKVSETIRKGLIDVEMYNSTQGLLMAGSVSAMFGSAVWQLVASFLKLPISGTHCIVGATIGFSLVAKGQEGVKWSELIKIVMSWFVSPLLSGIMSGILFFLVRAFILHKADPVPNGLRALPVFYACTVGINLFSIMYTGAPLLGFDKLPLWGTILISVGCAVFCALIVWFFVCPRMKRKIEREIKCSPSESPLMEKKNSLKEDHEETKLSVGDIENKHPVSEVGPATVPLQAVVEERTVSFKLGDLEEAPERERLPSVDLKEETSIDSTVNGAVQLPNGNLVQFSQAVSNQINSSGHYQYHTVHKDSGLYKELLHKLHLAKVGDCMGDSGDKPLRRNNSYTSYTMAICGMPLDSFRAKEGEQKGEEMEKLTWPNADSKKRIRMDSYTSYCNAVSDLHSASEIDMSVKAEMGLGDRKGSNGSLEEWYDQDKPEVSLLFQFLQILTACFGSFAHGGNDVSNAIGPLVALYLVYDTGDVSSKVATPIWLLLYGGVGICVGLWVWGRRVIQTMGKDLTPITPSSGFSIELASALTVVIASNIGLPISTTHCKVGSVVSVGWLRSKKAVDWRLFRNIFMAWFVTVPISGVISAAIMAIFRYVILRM

[3] = molecular target: T1, PiT1 phosphate transporter on murine …; test: fluorescence staining of mouse cerebellum cryosections with RBD-rFc, biotinylated anti-rabbit IgG, Streptavidin-Alexa488
[4] = molecular target: T3, glucose transporter Glut1 on human cells (B cells, B-CLL cells, red blood cells, T cells) (human, UniProt P11166 1-492); test: flow cytometry, GFP-tagged RBD on human red blood cells
T3 construct: whole, on cells; Endogenous receptor on primary human cells; the species follows from the cells; also called HTLV Env receptor
T3 sequence: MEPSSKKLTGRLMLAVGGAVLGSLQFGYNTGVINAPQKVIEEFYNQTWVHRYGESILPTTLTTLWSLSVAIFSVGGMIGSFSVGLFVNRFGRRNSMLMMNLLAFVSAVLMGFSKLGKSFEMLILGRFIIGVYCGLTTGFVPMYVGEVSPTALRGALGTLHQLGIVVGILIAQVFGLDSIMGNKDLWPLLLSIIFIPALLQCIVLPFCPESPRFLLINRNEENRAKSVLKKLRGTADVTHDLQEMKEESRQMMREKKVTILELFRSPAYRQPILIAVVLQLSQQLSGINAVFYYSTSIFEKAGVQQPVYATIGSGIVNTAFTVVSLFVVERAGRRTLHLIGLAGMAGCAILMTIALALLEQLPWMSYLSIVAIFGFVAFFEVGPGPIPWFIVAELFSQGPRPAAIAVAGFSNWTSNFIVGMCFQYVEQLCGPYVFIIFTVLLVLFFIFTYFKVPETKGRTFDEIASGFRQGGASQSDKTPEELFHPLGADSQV

B1: Gibbon Ape Leukemia virus (GALV) Env receptor binding domain, tagged soluble receptor binding ligand (ligand)
chain: TSLQNKNPHQPMTLTWQVLSQTGDVVWDTKAVQPPWTWWPTLKPDVCALAASLESWDIPGTDVSSSKRVRPPDSDYTAAYKQITWGAIGCSYPRARTRMASSTFYVCPRDGRTLSEARRCGGLESLYCKEWDCETTGTGYWLSKSSKDLITVKWDQNSEWTQKFQQCHQTGWCNPLKIDFTDKGKLSKDWITGKTWGLRFYVSGHPGVQFTIRLKITNMPAVAVGPDLVLVEQGPPRTSLALPPPLPPREAPPPSLPDSNSTALATSAQTPTVRKTIVTLNTPPPTTGDRLFDLVQGAFLTLNATNPGATESCWLC
notes: also called GaLV RBD; not shown: tag not specified
- binding result [1]: binds
- binding result [2]: binds

B2: Gibbon ape Leukemia Virus-RBD soluble RBD-rFc fusion protein (Fc fusion)
chain: TSLQNKNPHQPMTLTWQVLSQTGDVVWDTKAVQPPWTWWPTLKPDVCALAASLESWDIPGTDVSSSKRVRPPDSDYTAAYKQITWGAIGCSYPRARTRMASSTFYVCPRDGRTLSEARRCGGLESLYCKEWDCETTGTGYWLSKSSKDLITVKWDQNSEWTQKFQQCHQTGWCNPLKIDFTDKGKLSKDWITGKTWGLRFYVSGHPGVQFTIRLKITNMPAVAVGPDLVLVEQGPPRTSLALPPPLPPREAPPPSLPDSNSTALATSAQTPTVRKTIVTLNTPPPTTGDRLFDLVQGAFLTLNATNPGATESCWLC
notes: also called GRBD; not shown: rabbit IgG Fc (rFc)
- binding result [3]: binds

B3: HTLV2 (SEQ ID NO: 28) tagged with a green fluorescent protein (GFP) (ligand)
chain: QQSRCTLTVGISSYHSSPCSPTQPVCTWNLDLNSLTTDQRLHPPCPNLITYSGFHKTYSLYLFPHWIKKPNRQGLGYYSPSYNDPCSLQCPYLGCQSWTCPYTGPVSSPSWKFHSDVNFTQEVSQVSLRLHFSKCGSSMTLLVDAPGYDPLWFITSEPTQPPPTSPPLVHDSDLEHVLTPSTSWTTKILKFIQLTLQSTNYSCMVC
notes: also called HRBD-EGFP; non antibody Glut1-ligand; not shown: green fluorescent protein tag (GFP / EGFP)
- binding result [4]: binds

Reference: patent US20130203080A1 (UNIVERSITE MONTPELLIER 2, published 2013)
